Assay in all cases: staining of transfected COS-7 cells, FACS
The target of experiment [1] is T1, human gc chain mutant, VEY replaced by Ala (Domain 1 Loop AB), myc-tagged, on COS-7 cells (human, UniProt P31785 23-369).
T1 construct: whole, on cells; not shown: 9 amino acid myc tag at the 5' end of the construct
T1 sequence (looked up): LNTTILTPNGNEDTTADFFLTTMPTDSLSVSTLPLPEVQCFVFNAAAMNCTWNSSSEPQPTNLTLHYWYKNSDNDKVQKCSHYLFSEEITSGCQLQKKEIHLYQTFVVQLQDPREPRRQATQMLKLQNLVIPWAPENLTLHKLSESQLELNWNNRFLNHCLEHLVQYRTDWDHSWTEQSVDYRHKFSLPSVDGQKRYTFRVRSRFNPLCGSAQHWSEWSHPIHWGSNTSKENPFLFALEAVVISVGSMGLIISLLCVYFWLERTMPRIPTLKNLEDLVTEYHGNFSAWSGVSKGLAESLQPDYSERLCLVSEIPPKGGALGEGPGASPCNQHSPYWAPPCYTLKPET
The method, then:
(§1) COS-7 cells are transiently transfected with 20 ug of DNA encoding the gc chain mutant or wildtype cDNA and 180 ug of herring sperm carrier DNA. After 2-3 days, COS-7 cells are harvested and analyzed by immnunofluorescent staining with anti-gc chain mAbs. MAbs are used at 10 ug/ml in PBS-1% BSA-0.02% sodium azide and allowed 30 minutes to bind to 1×10⁶ COS-7 cells. Cells are then washed 2 times, and bound mAb is detected with PE-conjugated goat anti-mouse Fc specific antibodies. The % of positive cells staining with the anti-gc chain mAb over an irrelevant control Ig is determined for a given gc chain mutant and for wildtype gc chain. […] Data are adjusted for any differences in level of expression of a mutant vs. wildtype constructs by measuring the binding of a mAb specific for a 9 amino acid myc tag engineered at the 5′ end of each gc chain construct. […] Values reduced from 100% indicate amino acid mutations which affect mAb binding.
(§2) The value “100%” indicates no effect of mutation and lower percentages indicate greater losses in binding as a result of the sequence change.

For experiment [2], the target named is T2, human gc chain mutant, LSE replaced by Ala (Domain 2 Loop AB), myc-tagged, on COS-7 cells (human, UniProt P31785 23-369).
T2 construct: whole, on cells; not shown: 9 amino acid myc tag at the 5' end of the construct
T2 sequence (looked up): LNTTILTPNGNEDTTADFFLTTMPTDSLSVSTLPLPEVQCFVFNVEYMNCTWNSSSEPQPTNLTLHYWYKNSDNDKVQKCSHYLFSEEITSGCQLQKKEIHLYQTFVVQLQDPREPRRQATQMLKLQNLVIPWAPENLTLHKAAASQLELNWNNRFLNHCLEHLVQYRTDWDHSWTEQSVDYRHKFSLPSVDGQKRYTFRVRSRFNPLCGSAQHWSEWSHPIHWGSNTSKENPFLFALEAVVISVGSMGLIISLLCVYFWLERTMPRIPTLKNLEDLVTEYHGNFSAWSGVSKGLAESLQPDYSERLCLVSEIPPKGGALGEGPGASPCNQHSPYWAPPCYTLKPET
The method, then:
as §1, §2

The target of experiment [3] is T3, human gc chain mutant, NDK replaced by Ala (Domain 1 Loop CC), myc-tagged, on COS-7 cells (human, UniProt P31785 23-369).
T3 construct: whole, on cells; not shown: 9 amino acid myc tag at the 5' end of the construct
T3 sequence (looked up): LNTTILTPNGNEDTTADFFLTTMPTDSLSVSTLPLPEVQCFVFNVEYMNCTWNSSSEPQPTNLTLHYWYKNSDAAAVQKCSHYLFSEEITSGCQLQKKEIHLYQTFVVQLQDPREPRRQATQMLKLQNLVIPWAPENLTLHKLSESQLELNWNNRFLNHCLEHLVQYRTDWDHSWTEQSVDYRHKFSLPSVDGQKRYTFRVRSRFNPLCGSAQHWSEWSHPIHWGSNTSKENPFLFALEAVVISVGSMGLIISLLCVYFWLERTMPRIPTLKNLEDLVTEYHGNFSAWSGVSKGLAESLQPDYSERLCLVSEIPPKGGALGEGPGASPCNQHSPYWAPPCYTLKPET
The method, then:
as §1, §2

The target of experiment [4] is T4, human gc chain mutant, LNH replaced by Ala (Domain 2 Loop BC), myc-tagged, on COS-7 cells (human, UniProt P31785 23-369).
T4 construct: whole, on cells; not shown: 9 amino acid myc tag at the 5' end of the construct
T4 sequence (looked up): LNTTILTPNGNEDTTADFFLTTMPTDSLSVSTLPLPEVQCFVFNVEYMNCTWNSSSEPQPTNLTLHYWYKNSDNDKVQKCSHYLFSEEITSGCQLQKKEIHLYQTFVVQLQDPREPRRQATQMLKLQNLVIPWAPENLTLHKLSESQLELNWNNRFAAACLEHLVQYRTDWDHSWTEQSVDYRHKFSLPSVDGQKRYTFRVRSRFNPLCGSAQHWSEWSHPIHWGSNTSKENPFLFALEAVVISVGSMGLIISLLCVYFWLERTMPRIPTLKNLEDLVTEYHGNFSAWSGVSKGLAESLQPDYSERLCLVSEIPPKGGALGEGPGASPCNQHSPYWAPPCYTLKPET
The method, then:
as §1, §2

For experiment [5], the target named is T5, human gc chain mutant, FNV replaced by Ala (Domain 1 Loop AB), myc-tagged, on COS-7 cells (human, UniProt P31785 23-369).
T5 construct: whole, on cells; not shown: 9 amino acid myc tag at the 5' end of the construct
T5 sequence (looked up): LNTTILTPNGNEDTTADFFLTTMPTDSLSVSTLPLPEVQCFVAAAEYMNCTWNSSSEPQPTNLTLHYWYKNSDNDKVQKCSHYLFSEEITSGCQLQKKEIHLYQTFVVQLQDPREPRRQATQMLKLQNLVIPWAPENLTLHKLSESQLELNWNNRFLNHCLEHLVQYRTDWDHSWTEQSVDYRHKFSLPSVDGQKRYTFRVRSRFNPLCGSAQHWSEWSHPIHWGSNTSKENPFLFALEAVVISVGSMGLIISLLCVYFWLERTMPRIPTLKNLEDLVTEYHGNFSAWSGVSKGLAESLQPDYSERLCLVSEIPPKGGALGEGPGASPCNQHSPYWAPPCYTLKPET
The method, then: as §1, §2

B1: CP.B8 monoclonal antibody (murine anti-human gc chain, hybridoma ATCC HB-12107) (antibody, V domains shown)
VH: LQESGPGLVAPSQSLSITCTVSGFSLTSYGVHWVRQPPGKGLEWLGVIWAGGSTNYNSALMSRLNINRDNSKSQIFLKMNSLQTDDTAIYYCAREGSTVDSMDYWGQGTTVT
VL: DIVMTQSHKFMSTSVGDSITITCKASQDVTTAVAWYQQKPGQSPKLLIYWASTRHTGVPDRFTGSGSGTDYTLTISSVQAEDLALYYCQQHYITPWTFGGGTKLEI
notes: Used unconjugated and biotin-conjugated; also called CP.B8 mAb; mAb CP.B8
On to B1, for which the “% binding to mutant gc chain/wildtype gc chain” value in experiment [1] is 0%; in experiment [2], 90%; in experiment [3], 71%; in experiment [4] it was 88%; in experiment [5] it was 9%.

These data come from US20020028202A1 (Biogen, published 2002).
